Laboratory results from US7135326B2, “UDP-glucosyltransferases” (E. I. du Pont de Nemours and Company, priority 2002, dated 2006).

Key:
[1] = test system: Grape GT; assay: Substrate specificity of the purified recombinant Grape GT, HPLC analysis of glucose ester formation; type: biochemical, Vitis sp.; settings: relative to pHBA = 100, 10 mM test substrate, 0.0467 μM purified Grape GT, 15 min, 25° C.
Procedure: To rule out the possibility that the Grape GT can also attach glucose to the hydroxyl group of pHBA, the products of the in vitro enzyme reaction were directly analyzed by reverse phase HPLC. […] Following a 1-min incubation period at 25° C., the reactions were terminated by the addition of an equal volume of 0.2 N HCl. […] The column was developed at 1 mL/min with a linear gradient of 10–50% Buffer B that was generated over a 20-min period, and absorbance was monitored at 254 nm. […] To test this hypothesis, Applicants' decided to examine the substrate specificity of the Grape GT in greater detail. […] Following a 15-min incubation period at 25° C., the reactions were quenched with an equal volume of 0.3 M HCl and the entire reaction mixture was analyzed by HPLC as described above in Example 6. The products of the various reactions were identified using authentic chemical standards. The retention times and extinction coefficients of these compounds were determined using the same column conditions. […] Regardless of substrate, the purified recombinant Grape GT only catalyzed the formation of glucose esters, which in all cases co-migrated precisely with the authentic compounds. […] Since the glucose ester of the latter compound is the precursor for the synthesis of simple and complex tannins that are extremely abundant in grapes, it is possible that gallic acid is a physiological substrate of the Grape GT. The data shown in Table 3 make it clear that although the Grape GT glucosylated mHBA (3-hydroxybenzoic […]) at a reasonable rate, product formation with oHBA (2-hydroxybenzoic acid) was not observed.

[2] = target: CPL (Escherichia coli, UniProt P26602); assay: Product inhibition of CPL by pHBA; type: biochemical, E. coli; settings: read-out: inhibitory constant (Ki)
Procedure: Although double transformant line 39 and the CPL control plant had essentially the same amount of CPL enzyme activity as measured in leaf extracts (Table 8), this doesn't necessarily reflect the situation in vivo. CPL enzyme assays are conducted under optimal conditions, and measure initial velocities in the presence of excess substrate and absence of products. Thus, the initial rate of product formation in the in vitro assay is strictly proportional to the amount of enzyme that is added to the cuvette. Consequently, if two plants had identical levels of CPL gene expression, leaf extracts prepared from these plants would theoretically yield the same initial velocity in the in vitro assay. […] Applicants confirmed these observations.

[3] = test system: Arabidopsis thaliana glucosyltransferase UGT84A3 (GT 4, SEQ ID NO:12); settings: 20° C., pH 6; calculated from Vmax of Lim et al. 2001; cited from earlier work
[4] = test system: Arabidopsis thaliana glucosyltransferase UGT84A1 (84A1, GT 3, SEQ ID NO:8); settings: 20° C., pH 6; calculated from Vmax of Lim et al. 2001; cited from earlier work
[5] = Acid and base hydrolysis of pHBA glucose conjugates, HPLC; type: physicochemical; settings: 48 h at 60° C. with NaOH or HCL, 0.19 mM
Procedure: The initial concentration of both compounds was 0.19 mM and the total reaction volume was […]. Reactions were conducted in tightly sealed polypropylene tubes to prevent evaporative loss. […] Prior to HPLC analysis, the acid hydrolyzed samples were diluted with an equal volume of NaOH that contained a 0.2 mM excess of NaOH relative to the original concentration of HCL. The base hydrolyzed samples were analyzed directly. Chemically synthesized pHBA phenolic and ester glucoside standards and free pHBA were used to calibrate the HPLC runs for retention times, and extinction coefficients for all three compounds were accurately determined under the conditions employed. Peak areas were integrated using the software package provided with the Hewlett Packard Chemstation, and values obtained with known amounts of the chemical standards were used to quantitate compounds of interest in the acid and base hydrolyzed samples.

[6] = test system: Arabidopsis thaliana glucosyltransferase UGT84A2; settings: 20° C., pH 6; calculated from Vmax of Lim et al. 2001; cited from earlier work
[7] = Continuous spectrophotometric UDP-glucosyltransferase assay, formation of pHBA glucose ester at 304 nm, E. coli cell-free extracts; type: biochemical; settings: crude extract, 10 mM UDP-glucose, pH 7.3, 25° C.
Procedure: (§1) For protein production, the resulting recombinant strains were grown at 22° C. in 50 mL of LB media that contained kanamycin (50 μg/mL). At an A600 nm of ˜0.6, isopropyl-1-thio-β-D-galactopyranoside was added to a final concentration of 0.2 mM. Following a 22-h induction period at the same temperature, the cells were harvested by centrifugation and stored at −80° C. for subsequent manipulation as described below.
(§2) The frozen cell pellets were resuspended in 1.0 mL of a solution containing 100 mM Tris-HCl (pH 7.7), 5 mM MgSO4, 1 mM dithiothreitol, 0.03 mg/mL DNAse I, 0.5 mM phenylmethanesulfonyl fluoride, and passed once through a French pressure cell at 20,000 psi. Debris was removed by centrifugation (43,000×g, 60 min), and the resulting cell-free extracts, containing ˜15 mg of protein per mL, were supplemented with 5% glycerol and stored at −80° C. for subsequent measurements of enzyme activities. Protein concentrations were determined by the Bradford Method using bovine serum albumin as a standard.

[8] = Continuous spectrophotometric UDP-glucosyltransferase assay, formation of glucose ester of sinapic acid at 368 nm, E. coli cell-free extracts; type: biochemical; settings: crude extract, 10 mM UDP-glucose, pH 7.3, 25° C.
Procedure: as §1, §2
(§3) The second assay is based on the increase in absorbance at 368 nm that accompanies the formation of the glucose ester of sinapic acid. The experimental conditions were the same as those described above, but the test substrate was sinapic acid and product formation was calculated using an extinction coefficient of 5,570 M^−1 that was obtained with the authentic chemically synthesized compound under identical conditions.

[9] = Ratio of enzyme activity with pHBA versus sinapic acid (spectrophotometric assays); type: biochemical; settings: for pHBA/SA ratio of enzyme activity: crude extract
Procedure: as §3

[10] = Reverse phase HPLC analysis of the products of the in vitro enzyme reaction with pHBA; type: biochemical
Procedure: To rule out the possibility that the Grape GT can also attach glucose to the hydroxyl group of pHBA, the products of the in vitro enzyme reaction were directly analyzed by reverse phase HPLC. […] Following a 1-min incubation period at 25° C., the reactions were terminated by the addition of an equal volume of 0.2 N HCl. The samples were briefly centrifuged, and 20-μL aliquots of the resulting supernatants were injected onto a Vydac 218TP54 Protein and Peptide C18 column, (Grace Vydac, Hesperia, Calif.) pre-equilibrated with 90% Buffer A (0.1% formic acid in water) and 10% Buffer B (methanol). The column was developed at 1 mL/min with a linear gradient of 10–50% Buffer B that was generated over a 20-min period, and absorbance was monitored at 254 nm.
In light of these observations, it was extremely important to analyze the reaction products of the Grape GT over a broader range of pH that encompasses physiological conditions. […] In addition, the reaction mixtures also contained 100 mM potassium phosphate buffer (pH 6.0, 7.0 or 8.0), 5 mM MgCl2, 5 mM UDP-glucose, 2 mM dithiothreitol, and 0.47 μM of the purified recombinant Grape GT. After a 15-min incubation period, the reactions were terminated by the addition of an equal volume of 0.3 M HCl and analyzed by reverse phase HPLC as described above. […]

[11] = Freeze/thaw stability of the purified recombinant Grape GT; type: physicochemical; settings: diluted in buffer with 6% glycerol and 5 mM dithiothreitol, kept on ice, frozen to −80° C.
Procedure: For all the enzyme assays described below, frozen aliquots of the purified Grape GT were rapidly thawed and diluted to the desired concentration with ice-cold buffer containing 50 mM Tris-HCl (pH 7.6), 1 mM EDTA, 10 mM Na2SO3, 300 mM NaCl, 6% glycerol and 5 mM dithiothreitol.

CPL, sequence (P26602 whole entry): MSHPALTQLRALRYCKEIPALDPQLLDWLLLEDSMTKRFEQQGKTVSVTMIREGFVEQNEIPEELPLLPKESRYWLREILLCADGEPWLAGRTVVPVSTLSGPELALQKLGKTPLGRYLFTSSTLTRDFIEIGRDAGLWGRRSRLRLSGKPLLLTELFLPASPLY

## COc1cc(/C=C/C(=O)O)ccc1O [Ferrulic acid, ferrulic acid]
[1]
  Relative Rate of product formation: 16

## O=C(O)c1cc(O)c(O)c(O)c1 [Gallic acid, 3,4,5-trihydoxybenzoic acid]
[1]
  Relative Rate of product formation: 64

## O=C(O)c1cccc(O)c1 [MHBA, m-Hydroxybenzoic acid]
[1]
  Relative Rate of product formation: 47

## O=C(O)c1ccccc1O [OHBA, o-Hydroxybenzoic acid]
[1]
  Relative Rate of product formation: 0

## O=C(O)c1ccc(O)cc1 [PHBA, p-Hydroxybenzoic acid]
[1]
  Relative Rate of product formation: 100
[2]
  Ki: ~2000 nM

## O=C(O)C=Cc1ccc(O)cc1 [PHCA, 4-hydroxycinnamic acid]
[1]
  Relative Rate of product formation: 56

## COc1cc(/C=C/C(=O)O)cc(OC)c1O [Sinapic acid]
[1]
  Relative Rate of product formation: 10

## O=C(O)/C=C/c1ccccc1 [cinnamic acid]
[3]
  turnover number with cinnamic acid: ~0.9 s⁻¹

## O=C(O)/C=C/c1ccc(O)cc1 [p-hydroxycinnamic acid]
[4]
  turnover number with p-hydroxycinnamic acid: ~0.70 s⁻¹

## O=C(O[C@@H]1O[C@H](CO)[C@@H](O)[C@H](O)[C@H]1O)c1ccc(O)cc1 [pHBA glucose ester]
[5]
  susceptibility to acid and base hydrolysis: far more susceptible to acid and base hydrolysis than the pHBA phenolic glucoside

## COc1cc(/C=C/C(=O)O)cc(OC)c1O [sinapic acid, Sinapic acid]
[6]
  turnover number with sinapic acid: ~0.72 s⁻¹

B1: Grape GT: Vitis sp. UDP-glucosyltransferase, SEQ ID NO:18, recombinant from E. coli (protein)
chain: MGSESKLVHVFLVSFPGQGHVNPLLRLGKRLASKGLLVTFSTPESIGKQMRKASNITDQPTPVGEGLIRFEFFEDEWDENEPKRQDLDLYLPQLELVGKKVLPQMIKKHAEQDRPVSCLINNPFIPWVSDVAADLGIPSAMLWVQSCACFSTYYHYYHGLVPFPSEAEPEIDVQLPCMPLLKYDEVASFLYPTTPYPFLRRAILGQYRNLDKPFCILMDTFQELEPEVIEYMSKICPIKPVGPLYKNPKVPNAAVRGDFMKADDCIEWLDSKPPSSIVYVSFGSVVYLKQDQVDEIAYGLLNSGLQFLWVMKPPHKDAGLELLVLPEGFLEKAGDKGKVVQWSPQEQVLAHPSVACFVTHCGWNSSMEALSSGMPVVAFPQWGDQVTDAKYLVDEFKIGVRMCRGEAENKLITRDEVEKCLIEATTGPKAAELKQNAMKWKKAAEQAVAEGGSSERNLQGFVDEVRRRSIEIIYKTKI
modifications: Vitis ssp.
[7]; 1 mM pHBA
  initial rate of product formation, 1 mM pHBA: 96.4 μM per min
[7]; 5 mM pHBA
  initial rate of product formation, 5 mM pHBA: 177 μM per min
[7]; 10 mM pHBA
  initial rate of product formation, 10 mM pHBA: 181 μM per min
[8]; 1 mM sinapic acid
  initial rate of product formation, 1 mM SA: 22.8 μM per min
[8]; 5 mM sinapic acid
  initial rate of product formation, 5 mM SA: 16.6 μM per min
[8]; 10 mM sinapic acid
  initial rate of product formation, 10 mM SA: 4.8 μM per min
[9]; 10 mM substrate concentration
  substrate preference for pHBA over sinapic acid: 37.7 fold
[9]; 10 mM substrate, cell-free extract
  rate of pHBA glucosylation relative to sinapic acid: ~40 times
[9]; Table 4, cell-free extracts, 10 mM pHBA or sinapic acid, 25° C.
  Ratio of Activity pHBA/SA: 37.7
[9]; 1 mM substrate
  pHBA/SA ratio of enzyme activity: 4.23
[9]; 5 mM substrate
  pHBA/SA ratio of enzyme activity: 10.7
[9]; 10 mM substrate
  pHBA/SA ratio of enzyme activity: 37.7
[10]; pH 6.0, 7.0 or 8.0, 0.15 mM or 5 mM pHBA, 0.47 μM purified Grape GT, 15 min
  glucose conjugates detected by HPLC: the only glucose conjugate that was detected in the in vitro assay was the pHBA glucose ester
[10]; purified enzyme, pH 7.3, 0.3 mM pHBA, 5 mM UDP-glucose, 25° C. (Example 6)
  glucosylated products detected by HPLC: the only glucosylated product that was detected in the fractionated enzyme reaction mixture was the pHBA glucose ester
[11]
  stability to freeze/thaw: stable to multiple cycles of freeze/thaw without significant loss of enzyme activity
